Experimental data from paper PMC7954794, “Protein context shapes the specificity of SH3 domain-mediated interactions in vivo” (Nature Communications, 2021).

System: Abp1 PPIs
Experiment: DHFR-PCA of Abp1 SH3-swapped baits (Fig. 2B-D, S2C, S2F);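 on Protein-protein interaction distance between Abp1 SH3-swapped baits, to ABP1: Euclidean distance between DHFR-PCA score profiles of the baits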;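 on Protein-protein interaction distance between Abp1 SH3-swapped baits, to BEM1-2: Euclidean distance between DHFR-PCA score profiles of the baits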;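 on Protein-protein interaction distance between Abp1 SH3-swapped baits, to BOI1: Euclidean distance between DHFR-PCA score profiles of the baits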;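 on Protein-protein interaction distance between Abp1 SH3-swapped baits, to BZZ1-1: Euclidean distance between DHFR-PCA score profiles of the baits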
Assay type: cell-based, Saccharomyces cerevisiae
Conditions: sheet Fig2C
In short: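 Interactions were scored by DHFR protein-fragment complementation. DHFR F[1,2]-tagged Abp1 strains, whose SH3 was swapped for yeast or human ortholog domains, were crossed on YPD at 30 °C for 48 h with a 1536-format array of 575 prey-DHFR F[3] strains and 40 negatives, giving four replicates per pair. PCA selection lasted 4 days after double diploid selection.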

B1: YSC84 (protein, UniProt P32793 1-468, looked up)
Protein YSC84: MGINNPIPRSLKSETKKAAKVLRSFVKPNQVFGADQVIPPYVLKRAKGLAIITVLKAGFLFSGRAGSGVIVARLKDGTWSAPSAIAMAGAGAGGMVGVELTDFVFILNSEEAVRSFSEFGTITLGGNVSVSAGPLGRSAEAAASASTGGVSAVFAYSKSKGLFAGVSVEGSAILERREANRKFYGDNCTSKMILSGRVKVPPAADPLLRILESRAFNFTRHDHDDNASGDDFYDDGQYSDNTSHYYDDIPDSFDSTDESSTRPNTRSSRRRGMSLGSRSRYDDDYDDDGYGRGRGYGDFDSEDEDYDYGRSPNRNSSRNRGPQIDRGTKPRANTRWEDDLYDRDTEYSRPNHSGRDYDNTRGNRRGYGRERGYSLGHGPTHPSNMSNVDDLSHKMSKTGLGNESTATNSATPTAVALYNFAGEQPGDLAFKKGDVITILKKSDSQNDWWTGRTNGKEGIFPANYVRVS
Protein-protein interaction distance between Abp1 SH3-swapped baits, to ABP1 (Abp1 bait with swapped SH3, distance to bait with ABP1 SH3): 13.97 | Protein-protein interaction distance between Abp1 SH3-swapped baits, to BBC1 (distance to Abp1 bait with BBC1 SH3): 14.14 | Protein-protein interaction distance between Abp1 SH3-swapped baits, to BEM1-1 (distance to Abp1 bait with BEM1-1 SH3): 19.6 | Protein-protein interaction distance between Abp1 SH3-swapped baits, to BEM1-2 (distance to Abp1 bait with BEM1-2 SH3): 36.26 | Protein-protein interaction distance between Abp1 SH3-swapped baits, to BOI1 (distance to Abp1 bait with BOI1 SH3): 16.61 | Protein-protein interaction distance between Abp1 SH3-swapped baits, to BOI2 (distance to Abp1 bait with BOI2 SH3): 20.04 | Protein-protein interaction distance between Abp1 SH3-swapped baits, to BUD14 (distance to Abp1 bait with BUD14 SH3): 22.52 | Protein-protein interaction distance between Abp1 SH3-swapped baits, to BZZ1-1 (distance to Abp1 bait with BZZ1-1 SH3): 11.3 | Protein-protein interaction distance between Abp1 SH3-swapped baits, to BZZ1-2 (distance to Abp1 bait with BZZ1-2 SH3): 16.58 | Protein-protein interaction distance between Abp1 SH3-swapped baits, to CDC25 (distance to Abp1 bait with CDC25 SH3): 30.76 | Protein-protein interaction distance between Abp1 SH3-swapped baits, to CTTN (distance to Abp1 bait with CTTN SH3): 17.19 | Protein-protein interaction distance between Abp1 SH3-swapped baits, to CYK3 (distance to Abp1 bait with CYK3 SH3): 31.42 | Protein-protein interaction distance between Abp1 SH3-swapped baits, to DBNL (distance to Abp1 bait with DBNL SH3): 11.44 | Protein-protein interaction distance between Abp1 SH3-swapped baits, to FUS1 (distance to Abp1 bait with FUS1 SH3): 23.88 | Protein-protein interaction distance between Abp1 SH3-swapped baits, to HCLS1 (distance to Abp1 bait with HCLS1 SH3): 11.3 | Protein-protein interaction distance between Abp1 SH3-swapped baits, to HOF1 (distance to Abp1 bait with HOF1 SH3): 34.92 | Protein-protein interaction distance between Abp1 SH3-swapped baits, to HSE1 (distance to Abp1 bait with HSE1 SH3): 12.83 | Protein-protein interaction distance between Abp1 SH3-swapped baits, to LSB1 (distance to Abp1 bait with LSB1 SH3): 3.911 | Protein-protein interaction distance between Abp1 SH3-swapped baits, to LSB3 (distance to Abp1 bait with LSB3 SH3): 3.425 | Protein-protein interaction distance between Abp1 SH3-swapped baits, to MYO3 (distance to Abp1 bait with MYO3 SH3): 9.995 | Protein-protein interaction distance between Abp1 SH3-swapped baits, to MYO5 (distance to Abp1 bait with MYO5 SH3): 8.128 | Protein-protein interaction distance between Abp1 SH3-swapped baits, to NBP2 (distance to Abp1 bait with NBP2 SH3): 21.76 | Protein-protein interaction distance between Abp1 SH3-swapped baits, to PEX13 (distance to Abp1 bait with PEX13 SH3): 7.848 | Protein-protein interaction distance between Abp1 SH3-swapped baits, to PIN3 (distance to Abp1 bait with PIN3 SH3): 5.862 | Protein-protein interaction distance between Abp1 SH3-swapped baits, to RVS167 (distance to Abp1 bait with RVS167 SH3): 8.283 | Protein-protein interaction distance between Abp1 SH3-swapped baits, to SDC25 (distance to Abp1 bait with SDC25 SH3): 36.86 | Protein-protein interaction distance between Abp1 SH3-swapped baits, to SHO1 (distance to Abp1 bait with SHO1 SH3): 12.33 | Protein-protein interaction distance between Abp1 SH3-swapped baits, to SLA1-1 (distance to Abp1 bait with SLA1-1 SH3): 33.18 | Protein-protein interaction distance between Abp1 SH3-swapped baits, to SLA1-2 (distance to Abp1 bait with SLA1-2 SH3): 24.17 | Protein-protein interaction distance between Abp1 SH3-swapped baits, to SLA1-3 (distance to Abp1 bait with SLA1-3 SH3): 6.014 | Protein-protein interaction distance between Abp1 SH3-swapped baits, to YSC84 (distance to Abp1 bait with YSC84 SH3): 0.00
